# Assay results as given in US20240352438A1, “MEANS AND METHODS FOR DETOXIFYING OCHRATOXIN A” (DSM Austria GmbH, priority 2021, published 2024).
# B1: 160 (protein)
# chain: MTTRTRILTAFLSLLAANACAADAAPAAPHTVVLRAARMFDGASGKLVDHPQLTIVGNKIVRIAQGDKAEVPAGAEVVDLGDATLLPGFIDAHVHLSGQSSDNWYGDFFDNMMRFPAEQALYGAYYARITLEAGFTSVRDVGSTDWVALGLRNAIDAGKVPGPRMLVSNYAVGSTGGHADQDPIPPHKLPLAGPLQGVCNGPEECRAAVRYQIKYGANVIKFMPSGGVLSLSDPVDAPELSQDEMNAVIGESHAWGRKVAAHAHGDKAAKMAVAAGVDSIEHGSFIEDDTLRAMKAKNVYLVPTISAVAHVEEKIGTYPPVIAEKGRAAAAHLRQTFRHAVQIGVPIALGTDAGVGAHGSNAREFRYMVENGLTPAQALLAGTANAARLLGTFDRVGTLEAGKLADVVAVPGNPIADITVTERPLFVMKDGVVVRRDAVR
# modifications: exemplary polypeptide
# B2: 163 (protein)
# chain: MTTRTRILTAFLSLLAANACAADAAPAAPHTVVLRAARMFDGASGKLVDHPQLTIVGNKIVRIAQGDKAEVPAGAEVVDLGDATLLPGFIDAHVHLSGQSSDNWYGDFFDNMMRFPAEQALYGAYYARITLEAGFTSVRDVGSTDWVALGLRNAIDAGKVPGPRMLVSNYAVGSTGGHADQDPIPPHKLPLAGPLQGVCNGPEECRAAVRYQIKYGANVIKFMPSGGVLSLSDPVDAPELSQDEMNAVIGESHAWGRKVAAHAHGDKAAKMAVAAGVDSIEHGSFIEDDTLRAMKAKNVYLVPTISAIAHVEEKIGTYPPVIAEKGRAAAAHLRQTFRHAVQIGVPIALGTDAAVGAHGSNAREFRYMVENGLTPAQALLAGTANAARLLGTFDRVGTLEAGKLADVVAVPGNPIADITVTERPLFVMKDGVVVRRDAVR
# modifications: exemplary polypeptide
# B3: 232 (protein)
# chain: MTTRTRILTAFLSLLAANACAADAAPAAPHTVVLRAARMFDGASGKLVDHPQLTIVGNKIVRIAQGDKAEVPAGAEVVDLGDATLLPGFIDAHVHLSGQSSDNWYGDFFDNMMRFPAEQALYGAYYARITLEAGFTSVRDVGSTDWVALGLRNAIDAGKVPGPRMLVSNYAVGSTGGHADQDPIPPHKLPLAGPLQGVCNGPEECRAAVRYQIKYGANVIKFMPSGGVLSLSQPVDAPELSQDEMNAVIGESHAWGRKVAAHAHGDKAAKMAVAAGVDSIEHGSFIEDDTLRAMKAKNVYLVPTISAIAHVEEKIGTFPPVIAEKGRAAAAHLRQTFRHAVQIGVPIALGTDAGVGAHGSNAREFRYMVENGLTPAQALLAGTANAARLLGTFDRVGTLEAGKLADVVAVPGNPIADITVTERPLFVMKDGVVVRRDAVR
# modifications: exemplary polypeptide
# B4: 164 (protein)
# chain: MTTRTRILTAFLSLLAANACAADAAPAAPHTVVLRAARMFDGASGKLVDHPQLTIVGNKIVRIAQGDKAEVPAGAEVVDLGDATLLPGFIDAHVHLSGQSSDNWYGDFFDNMMRFPAEQALYGAYYARITLEAGFTSVRDVGSTDWVALGLRNAIDAGKVPGPRMLVSNYPVGSTGGHADQDPVPPHKLPLAGPLQGVCNGPEECRAAVRYQIKYGANVIKFMPSGGVLSLSDPVDAPELSQDEMNAVIGESHAWGRKVAAHAHGDKAAKMAVAAGVDSIEHGSFIEDDTLRAMKAKNVYLVPTISAAAHVEEKIGTFPPVIAEKGRAAAAHLRQTFRHAVQIGVPIALGTDAGVGAHGSNAREFRYMVENGLTPAQALLAGTANAARLLGTFDRVGTLEAGKLADVVAVPGNPIADITVTERPLFVMKDGVVVRRDAVR
# modifications: exemplary polypeptide
# B5: 165 (protein)
# chain: MTTRTRILTAFLSLLAANACAADAAPAAPHTVVLRAARMFDGASGKLVDHPQLTIVGNKIVRIAQGDKAEVPAGAEVVDLGDATLLPGFIDAHVHLSGQSSDNWYGDFFDNMMRFPAEQALYGAYYARITLEAGFTSVRDVGSTDWVALGLRNAIDAGKVPGPRMLVSNYPVGSTGGHADQDPVPPHKLPLAGPLQGVCNGPEECRAAVRYQIKYGANVIKFMPSGGVLSLSDPVDAPELSQDEMNAVIGESHAWGRKVAAHAHGDKAAKMAVAAGVDSIEHGSFIEDDTLRAMKAKNVYLVPTISAVAHVEEKIGTFPPVIAEKGRAAAAHLRQTFRHAVQIGVPIALGTDAGVGAHGSNAREFRYMVENGLTPAQALLAGTANAARLLGTFDRVGTLEAGKLADVVAVPGNPIADITVTERPLFVMKDGVVVRRDAVR
# modifications: exemplary polypeptide
# B6: 162 (protein)
# chain: MTTRTRILTAFLSLLAANACAADAAPAAPHTVVLRAARMFDGASGKLVDHPQLTIVGNKIVRIAQGDKAEVPAGAEVVDLGDATLLPGFIDAHVHLSGQSSDNWYGDFFDNMMRFPAEQALYGAYYARITLEAGFTSVRDVGSTDWVALGLRNAIDAGKVPGPRMLVSNYAVGSTGGHADQDPIPPHKLPLAGPLQGVCNGPEECRAAVRYQIKYGANVIKFMPSGGVLSLSDPVDAPELSQDEMNAVIGESHAWGRKVAAHAHGDKAAKMAVAAGVDSIEHGSFIEDDTLRAMKAKNVYLVPTISAVAHVEEKIGTFPPVIAEKGRAAAAHLRQTFRHAVQIGVPIALGTDAAVGAHGSNAREFRYMVENGLTPAQALLAGTANAARLLGTFDRVGTLEAGKLADVVAVPGNPIADITVTERPLFVMKDGVVVRRDAVR
# modifications: exemplary polypeptide
# B7: 149 (protein)
# chain: MTTRTRILTAFLSLLAANACAADAAPAAPHTVVLRAARMFDGASGKLVDHPQLTIVGNKIVRIAQGDKAEVPAGAEVVDLGDATLLPGFIDAHVHLSGQSSDNWYGDFFDNMMRFPAEQALYGAYYARITLEAGFTSVRDVGSTDWVALGLRNAIDAGKVPGPRMLVSNYAVGSTGGHTDQDPIPPHKLPLAGPLQGVCNGPEECRAAVRYQIKYGANVIKFMPSGGVLSLSDPVDAPELSQDEMNAVIGESHAWGRKVAAHAHGDKAAKMAVAAGVDSIEHGSFIEDDTLRAMKAKNVYLVPTISAIAHVEEKIGTFPPVIAEKGRAAAAHLRQTFRHAVQIGVPIALGTDAGVGAHGSNAREFRYMVENGLTPAQALLAGTANAARLLGTFDRVGTLEAGKLADVVAVPGNPIADITVTERPLFVMKDGVVVRRDAVR
# modifications: exemplary polypeptide
# B8: 167 (protein)
# chain: MTTRTRILTAFLSLLAANACAADAAPAAPHTVVLRAARMFDGASGKLVDHPQLTIVGNKIVRIAQGDKAEVPAGAEVVDLGDATLLPGFIDAHVHLSGQSSDNWYGDFFDNMMRFPAEQALYGAYYARITLEAGFTSVRDVGSTDWVALGLRNAIDAGKVPGPRMLVSNYPVGSTGGHADQDPVPPHKLPLAGPLQGVCNGPEECRAAVRYQIKYGANVIKFMPSGGVLSLSDPVDAPELSQDEMNAVIGESHAWGRKVAAHAHGDKAAKMAVAAGVDSIEHGSFIEDDTLRAMKAKNVYLVPTISAIAHVEEKIGTFPPVIAEKGRAAAAHLRQTFRHAVQIGVPIALGTDAAVGAHGSNAREFRYMVENGLTPAQALLAGTANAARLLGTFDRVGTLEAGKLADVVAVPGNPIADITVTERPLFVMKDGVVVRRDAVR
# modifications: exemplary polypeptide
# B9: 168 (protein)
# chain: MTTRTRILTAFLSLLAANACAADAAPAAPHTVVLRAARMFDGASGKLVDHPQLTIVGNKIVRIAQGDKAEVPAGAEVVDLGDATLLPGFIDAHVHLSGQSSDNWYGDFFDNMMRFPAEQALYGAYYARITLEAGFTSVRDVGSTDWVALGLRNAIDAGKVPGPRMLVSNYPVGSTGGHADQDPIPPHKLPLAGPLQGVCNGPEECRAAVRYQIKYGANVIKFMPSGGVLSLSDPVDAPELSQDEMNAVIGESHAWGRKVAAHAHGDKAAKMAVAAGVDSIEHGSFIEDDTLRAMKAKNVYLVPTISAAAHVEEKIGTYPPVIAEKGRAAAAHLRQTFRHAVQIGVPIALGTDAGVGAHGSNAREFRYMVENGLTPAQALLAGTANAARLLGTFDRVGTLEAGKLADVVAVPGNPIADITVTERPLFVMKDGVVVRRDAVR
# modifications: exemplary polypeptide
# B10: 166 (protein)
# chain: MTTRTRILTAFLSLLAANACAADAAPAAPHTVVLRAARMFDGASGKLVDHPQLTIVGNKIVRIAQGDKAEVPAGAEVVDLGDATLLPGFIDAHVHLSGQSSDNWYGDFFDNMMRFPAEQALYGAYYARITLEAGFTSVRDVGSTDWVALGLRNAIDAGKVPGPRMLVSNYPVGSTGGHADQDPVPPHKLPLAGPLQGVCNGPEECRAAVRYQIKYGANVIKFMPSGGVLSLSDPVDAPELSQDEMNAVIGESHAWGRKVAAHAHGDKAAKMAVAAGVDSIEHGSFIEDDTLRAMKAKNVYLVPTISAIAHVEEKIGTYPPVIAEKGRAAAAHLRQTFRHAVQIGVPIALGTDAGVGAHGSNAREFRYMVENGLTPAQALLAGTANAARLLGTFDRVGTLEAGKLADVVAVPGNPIADITVTERPLFVMKDGVVVRRDAVR
# modifications: exemplary polypeptide
# Tests used:
# [1] = OTA detoxification activity assay (specific activity, fluorescence reduction ex/em 390/450 nm); type: biochemical; conditions: SEQ ID NO: 1 = 100%
# Method in brief: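 Recombinant enzyme preparation with 200 ng/mL OTA in 100 mM sodium phosphate, at pH 6.0 and pH 7.5, 37° C. Degradation followed as the fall in fluorescence at ex/em 390/450 nm. Specific activity taken from the initial linear slope; one unit degrades 1 μmol OTA per min at a starting OTA of […].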
# [2] = Enzymatic activity comparison: activity remaining after 65° C. for 10 min at pH 6.0, relative to SEQ ID NO: 1; type: physicochemical
# Experimental: To compare the temperature behavior and thermostability of selected enzymes to one another, enzyme was incubated at 65° C. for 10 min at pH 6.0. The enzymatic activity remaining after incubation was compared to the remaining activity of the enzyme of SEQ ID NO: 1 after incubation, the latter being set to 100%, see Table 16.
Molecule,"Specific OTA detoxification activities in % compared to the enzyme of SEQ ID NO: 1, pH 6.0 [1] [%]","Specific OTA detoxification activities in % compared to the enzyme of SEQ ID NO: 1, pH 7.5 [1] [%]","Enzymatic activity remaining after incubation, compared to SEQ ID NO: 1 (set to 100%) [2] [%]"
B1,78,84,30
B2,145,112,17
B3,,,25
B4,29,63,15
B5,46,71,33
B6,191,124,7
B7,30,13,
B8,54,73,26
B9,41,62,48
B10,72,68,37
